Source: patent publication US20210238289A1 (Biogen, published 2021)
Blank lines part the entries; values can stand above or below the binder they belong to.

What was measured:
CD16 (FcγRIIIa V158) [1] = target: T1, CD16 (FcγRIIIa V158) (UniProt P08637 17-208); experiment: solution competition SPR (Biacore)
T1 construct: V158 allotype as printed
Description: (§1) Binding to Fcγ receptors was analyzed using solution affinity surface plasmon resonance (ref Day E S, Cachero T G, Qian F, Sun Y, Wen D, Pelletier M, Hsu Y M, Whitty A. Selectivity of BAFF/BLyS and APRIL for binding to the TNF family receptors BAFFR/BR3 and BCMA. Biochemistry. 2005 Feb. 15; 44(6):1919-31.) The method utilizes conditions of so-called “mass-transport-limited” binding, in which the initial rate of ligand binding (protein binding to the senor chip) is proportional to the concentration of ligand in solution (ref BIApplications Handbook (1994) Chapter 6: Concentration measurement, pp 6-1-6-10, Pharmacia Biosensor AB). Under these conditions, binding of the soluble analyte (protein flowing over chip surface) to the immobilized protein on the chip is fast compared to the diffusion of the analyte into the dextran matrix on the chip surface. Therefore, the diffusion properties of the analyte and the concentration of analyte in solution flowing over the chip surface determine the rate at which analyte binds to the chip. In this experiment, the concentration of free Fc receptor in solution is determined by the initial rate of binding to a CM5 Biacore chip containing an immobilized IgG1 MAb. Into these Fc receptor solutions were titrated the stability engineered constructs (see Table 10.1 below). […] Initial binding rates were obtained from raw sensorgram data (FIG. 14). […] The results are shown in Table 10.1 and reported as the average of two titrations.

human C1q = target: T2, human C1q (human, UniProt P02745 23-245; P02746 28-253; P02747 29-245); experiment: C1q ELISA
T2 construct: Bought protein; also called complement factor C1q; Sigma human C1q (C0660)
Description: The C1q binding assay was be performed by coating 96 well Maxisorb ELISA plates (Nalge-Nunc Rochester, N.Y., USA) with 50 μl recombinant soluble human CD40 ligand at 10 ug/ml overnight at 4° C. in PBS. The wells were aspirated and washed three times with wash buffer (PBS, 0.05% Tween 20) and blocked for 1 hour with 200 µl/well of block/diluent buffer (0.1 M Na2HP04, pH 7.0, 1 M NaCl, 0.05% Tween 20, 1% gelatin). The antibodies were diluted in block/diluent buffer with 3-fold dilutions and incubated for 2 hours at room temperature.
After aspirating and washing as above, 50 pll/well of sheep anti C1q (Serotec AHP033), diluted 3, 560-fold in block/diluent buffer, were added. After incubation for 1 h at room temperature, the wells were aspirated and washed as above. 50 pll/well of donkey anti-sheep IgG HRP conjugate (Jackson ImmunoResearch 713-035-147) diluted to 1:10,000 in block/diluent were then added, and the wells incubated for 1 h at room temperature.
After aspirating and washing as above, 100 all TMB substrate (420 plM TMB, 0.004% H2O2 in 0.1 M sodium acetate/citric acid buffer, pH 4.9) were added and incubated for 2 min before the reaction was stopped with 100 ul 2 N sulfuric acid. The absorbance was read at 450 nm with a Softmax PRO instrument, and Softmax software was used to determine the relative binding affinity (C value) with a 4-parameter fit.

CD64 (FcγRI) = CD64 (FcγRI) (UniProt P12314 16-288, limits assumed); experiment: solution competition SPR (Biacore); construct titrated into receptor, free receptor read on immobilized IgG1 MAb
Description: as §1

CD16 (FcγRIIIa V158) [2] = target: T1, CD16 (FcγRIIIa V158); experiment: as above
Description: as §1

[3] = target: T3, cynomolgus monkey alpha-4 integrin (cynomolgus monkey, UniProt A0A2K5U6S2 34-970); experiment: in vitro binding affinity comparison; method not described
T3 construct: also called cynomolgus alpha-4 integrin

human alpha-4 integrin = target: T4, human alpha-4 integrin (human, UniProt P13612 34-970, limits assumed); experiment: as above
T4 construct: also called the human receptor

[4] = target: T5, VLA receptors (alpha-4 integrin) of cynomolgus monkeys in vivo (cynomolgus monkey, UniProt A0A2K5U6S2 34-1032); experiment: model-estimated (direct Emax PKPD model) EC50 for the formation of drug-bound VLA in cynomolgus monkeys
T5 construct: whole, on cells; Receptor occupancy measured in dosed animals; also called free VLA receptors
From the text: HP1/2 human PKs were projected through allometric scaling on monkey PK parameters (k10, k12, k21 and V1). See Singh, A. P et al. The AAPS Journal, 17(2), 389-399. […] The inherent monkey parameters were directly applied to human including Km, V max and the PD parameters (Eₘ, EC₅₀, E₀ and V). […] See Muralidharan, K. K. et al. Journal of Clinical Pharmacology, 57(8), 1017-1030. The data were integrated using an empirical scaling approach combining the EC₅₀ parameter values obtained in monkeys (m) and humans (h), after adjusting for potency (Kd) differences across species: […]

CD16 (FcγRIIIa V158) [5] = target: T1, CD16 (FcγRIIIa V158); experiment: solution competition SPR (Biacore); remark: listed apart in the source

B1: EAG2296 (hu5c8 S228P/T299A, IgG4 CH2/IgG1 CH3 chimera, aglycosylated) (antibody)
heavy: QVQLVQSGAEVVKPGASVKLSCKASGYIFTSYYMYWVKQAPGQGLEWIGEINPSNGDTNFNEKFKSKATLTVDKSASTAYMELSSLRSEDTAVYYCTRSDGRNDMDSWGQGTLVTVSSASTKGPSVFPLAPCSRSTSESTAALGCLVKDYFPEPVTVSWNSGALTSGVHTFPAVLQSSGLYSLSSVVTVPSSSLGTKTYTCNVDHKPSNTKVDKRVESKYGPPCPPCPAPEFLGGPSVFLFPPKPKDTLMISRTPEVTCVVVDVSQEDPEVQFNWYVDGVEVHNAKTKPREEQFNSAYRVVSVLTVLHQDWLNGKEYKCKVSNKGLPSSIEKTISKAKGQPREPQVYTLPPSRDELTKNQVSLTCLVKGFYPSDIAVEWESNGQPENNYKTTPPVLDSDGSFFLYSKLTVDKSRWQQGNVFSCSVMHEALHNHYTQKSLSLSPG
light: DIVLTQSPATLSVSPGERATISCRASQRVSSSTYSYMHWYQQKPGQPPKLLIKYASNLESGVPARFSGSGSGTDFTLTISSVEPEDFATYYCQHSWEIPPTFGGGTKLEIKRTVAAPSVFIFPPSDEQLKSGTASVVCLLNNFYPREAKVQWKVDNALQSGNSQESVTEQDSKDSTYSLSSTLTLSKADYEKHKVYACEVTHQGLSSPVTKSFNRGEC
notes: also called pEAG2296; copies: 2 + 2
- IC50 (CD16 (FcγRIIIa V158) [1]): 1320 µM
- binding result (human C1q): no binding

B2: EC326 (hu5c8 IgG4.P S228P, T307P, L309K, D399S, glycosylated) (antibody)
heavy: QVQLVQSGAEVVKPGASVKLSCKASGYIFTSYYMYWVKQAPGQGLEWIGEINPSNGDTNFNEKFKSKATLTVDKSASTAYMELSSLRSEDTAVYYCTRSDGRNDMDSWGQGTLVTVSSASTKGPSVFPLAPCSRSTSESTAALGCLVKDYFPEPVTVSWNSGALTSGVHTFPAVLQSSGLYSLSSVVTVPSSSLGTKTYTCNVDHKPSNTKVDKRVESKYGPPCPPCPAPEFLGGPSVFLFPPKPKDTLMISRTPEVTCVVVDVSQEDPEVQFNWYVDGVEVHNAKTKPREEQFNSTYRVVSVLPVKHQDWLNGKEYKCKVSNKGLPSSIEKTISKAKGQPREPQVYTLPPSQEEMTKNQVSLTCLVKGFYPSDIAVEWESNGQPENNYKTTPPVLSSDGSFFLYSRLTVDKSRWQEGNVFSCSVMHEALHNHYTQKSLSLSLG
light: DIVLTQSPATLSVSPGERATISCRASQRVSSSTYSYMHWYQQKPGQPPKLLIKYASNLESGVPARFSGSGSGTDFTLTISSVEPEDFATYYCQHSWEIPPTFGGGTKLEIKRTVAAPSVFIFPPSDEQLKSGTASVVCLLNNFYPREAKVQWKVDNALQSGNSQESVTEQDSKDSTYSLSSTLTLSKADYEKHKVYACEVTHQGLSSPVTKSFNRGEC
modifications: N-terminal Q largely converted to pyroglutamic acid; N-linked G0F/G1F/G2F glycans (mass spectrometry)
notes: copies: 2 + 2
- IC50 (CD64 (FcγRI)): 7.56 µM
- IC50 (CD16 (FcγRIIIa V158) [2]): 380 µM

B5: EAG2476 (YC406-Fc; agly IgG4-Fc T299K, T307P, L309K, D399S) (other)
Fc: ESKYGPPCPPCPAPEFLGGPSVFLFPPKPKDTLMISRTPEVTCVVVDVSQEDPEVQFNWYVDGVEVHNAKTKPREEQFNSKYRVVSVLPVKHQDWLNGKEYKCKVSNKGLPSSIEKTISKAKGQPREPQVYTLPPSQEEMTKNQVSLTCLVKGFYPSDIAVEWESNGQPENNYKTTPPVLSSDGSFFLYSRLTVDKSRWQEGNVFSCSVMHEALHNHYTQKSLSLSLG
modifications: Aglycosylated through T299K. The Fc is a homodimer; one chain is given.
- IC50 (CD16 (FcγRIIIa V158) [5]): 1320 µM

The next lines start with the values.

- fold weaker affinity than to the human receptor [3]: ~5 fold
- fold higher affinity than natalizumab Fab fragment (human alpha-4 integrin): > 19 fold
- fold higher affinity than natalizumab intact (human alpha-4 integrin): ~5 fold
- EC50 [4]: 4.73 ng/mL
B3: HP1/2 H1/L3 huIgG4P agly (N297Q, EU Numbering)/IgG1 chimera (antibody, V domains shown)
VH: EVQLVQSGAEVKKPGATVKISCKASGFNIKDTYMHWVQQAPGKGLEWMGRIDPASGDTKYDPKFQVRVTITADTSTDTAYMELSSLRSEDTAVYYCADGMWVSTGYALDFWGQGTLVTVSS
VL: SIVMTQSPDSLAVSLGERATINCKASQSVTNDVAWYQQKPGQPPKLLIYYASNRYTGVPDRFSGSGYGTDFTFTISSLQAEDVATYFCQQDYSSPYTFGQGTKVEIKR
notes: also called BIIB107; HP1/2 G4P agly/G1

- fold weaker affinity than to the human receptor [3]: ~6 fold
- fold higher affinity than natalizumab Fab fragment (human alpha-4 integrin): ~6 fold
B4: HP1/2 Fab fragment (Fab, V domains shown)
VH: EVQLVQSGAEVKKPGATVKISCKASGFNIKDTYMHWVQQAPGKGLEWMGRIDPASGDTKYDPKFQVRVTITADTSTDTAYMELSSLRSEDTAVYYCADGMWVSTGYALDFWGQGTLVTVSS
VL: SIVMTQSPDSLAVSLGERATINCKASQSVTNDVAWYQQKPGQPPKLLIYYASNRYTGVPDRFSGSGYGTDFTFTISSLQAEDVATYFCQQDYSSPYTFGQGTKVEIKR
